Experimental data reported in publication doi:10.1101/2025.08.03.668247, “The structure of Egalitarian in complex with the K10 mRNA localization signal reveals a modular binding surface required for function”.
Where a chain is given by its changes, count along the chain named.

How the values were obtained:
Assay in all cases: fluorescence anisotropy; FA: 20 mM HEPES-NaOH pH 7.5, 100 mM NaCl, 10% glycerol, 20 C, 10 nM FAM-RNA; competition: 150 nM Egl512-819 + 10 nM FAM-K10 TLS, same buffer
Details in all cases: protein: recombinant; tags: N-terminal GST; label: 5'-6-FAM; hairpin with two bulges
R753E = target: T1, R753E (Drosophila melanogaster, UniProt Q9W1K4 512-819, R753E)
T1 sequence: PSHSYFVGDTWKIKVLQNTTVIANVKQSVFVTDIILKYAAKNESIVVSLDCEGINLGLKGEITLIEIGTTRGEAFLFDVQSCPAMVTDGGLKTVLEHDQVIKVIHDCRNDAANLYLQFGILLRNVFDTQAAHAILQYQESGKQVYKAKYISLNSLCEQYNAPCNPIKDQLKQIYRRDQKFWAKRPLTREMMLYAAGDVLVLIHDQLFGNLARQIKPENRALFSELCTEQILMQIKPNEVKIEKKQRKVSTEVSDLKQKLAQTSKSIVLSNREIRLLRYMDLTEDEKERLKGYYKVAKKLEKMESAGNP

K754E = target: T2, K754E (Drosophila melanogaster, UniProt Q9W1K4 512-819, K754E)
T2 sequence: T1 sequence with E242R, K243E

R782E = target: T3, R782E (Drosophila melanogaster, UniProt Q9W1K4 512-819, R782E)
T3 sequence: T1 sequence with E242R, R271E

Work on CUUGAUUGUAUUUUUAAAUUAAUUCUUAAAAACUACAAAUUAAG (structured_RNA) [K10 TLS (FAM)] yielded a Kd (R753E) of 185 ± 9 nM, a Kd (K754E) of 263 ± 16 nM and a Kd (R782E) of 235 ± 30 nM.
